Results from patent US20250332278A1, “MULTIVALENT DISPLAY OF APOAI PEPTIDE ON NANOPARTICLES AGAINST ATHEROSCLEROSIS” (The Regents of the University of California, priority 2022, published 2025).

Key:
[1] = test system: J774 foam cells (ABCA1-mediated cholesterol efflux); assay: J774 cholesterol efflux assay; assay type: cell-based
Description: J774 Cholesterol efflux assay. Cholesterol efflux was measured from J774 cells (ATCC) as previously described.^23 Briefly, J774 cells were seeded in 96-well plates at 1×10^5 cells/100 μL in DMEM (Corning) with 10% (v/v) fetal bovine serum (FBS) and 1% (w/v) penicillin-streptomycine (P/S). Cells were incubated until they reached ˜80% confluence. After two rinses with FBS-free DMEM containing 1% (w/v) P/S they were incubated for 48 h in 200 μL FBS-free DMEM containing 40 μg/mL acetylated low-density lipoprotein (AcLDL), 2 μg/mL Sandoz inhibitor, 1% (w/v) P/S, and 5% (v/v) human lipoprotein-deficient serum (LPDS) to produce foam cells. Excess lipids were removed by two rinses as above, and foam cells were equilibrated for 12 h in 200 μL FBS-free DMEM, 2 μg/mL Sandoz inhibitor, 0.3 mM CPT-cAMP, 1% (w/v) P/S, and 5% (v/v) human LPDS. After two further rinses, cholesterol efflux was initiated by adding different VLP/VNP or peptide treatments in FBS-free DMEM containing 1% (w/v) P/S and 5% (v/v) human LPDS and incubating for 15 h. The medium was then collected, centrifuged (1000×g, 10 min, 4° C.) and the cholesterol content of the supernatant was determined using the Amplex assay kit. Cells were washed three times with ice-cold PBS, lysed using 200 μL of Cytobuster lysis buffer, and the cholesterol content of the lysate was determined using the Amplex assay kit. Cholesterol efflux was calculated by dividing the amount of cholesterol in the medium by the total cholesterol content of the medium and lysate.

[2] = test system: SVEC cells; assay: Wound healing assay under oxidative stress; assay type: cell-based; settings: 0.5 μM, 8-h treatment, 4-h 50 μg/mL ox-LDL, versus control (serum-free medium)
Description: Wound healing assay. SVEC cell migration was investigated using a Radius 96-well kit (Cell Bio Labs). Applicant seeded 3×10^4 cells in 200 μL DMEM per well and allowed the cells to reach ˜80% confluence. After removing the Radius Gel, cells were allowed to migrate for 24 h in the presence of various treatments. Bright-field phase contrast images were acquired after 0, 12 and 24 h using an EVOS FL microscope fitted with a 10× objective (n=6 cells per group). Percentage wound closure was calculated by tracing the wound perimeter in ImageJ to calculate the area at t=12 or 24 h and dividing by the initial starting area at t=0 h.
Applicant therefore evaluated the effect of T-4FN on wound healing using SVEC cells.

[3] = Dynamic light scattering of VLP/VNP conjugates; assay type: physicochemical; settings: 1 mg/mL in 0.01 M KP buffer
Description: Dynamic Light Scattering (DLS). The hydrodynamic diameter of VLPs/VNPs conjugates were probed using a Zetasizer Nano ZSP/Zen5600 instrument (Malvern Panalytical, Malvern, UK). Particle hydrodynamic diameter was calculated as the weighted mean of the intensity distribution and samples were analyzed at 1 mg/mL concentration in 0.01 M KP buffer.

[4] = test system: SVEC cells; assay: ROS assay; assay type: cell-based; settings: 8 h treatment (0.5 μM particles or matched free peptide), then ox-LDL 4 h
Description: ROS assay. SVEC cells (ATCC) were seeded in four-compartment 35-mm CELLview glass-bottom dishes or 96-well plates at 6×10^4 cells/mL in 500 μL DMEM and were allowed to reach ˜80% confluence. The medium was then removed, and the cells were washed once with PBS before incubation with VLPs/VNPs for 8 h. Applicant then added 100 μg/mL ox-LDL for 4 h to induce oxidative stress and detected ROS using a CellROX Green Reagent Kit. Images were captured using a Nikon AiR confocal microscope with a 20×, 0.75 numerical aperture dry objective.

[5] = molecular target: ATP-binding cassette transporter A1 (ABCA1) on J774 foam cells (UniProt P41233); assay: cell-based or functional assay
Chain of UniProt P41233 (P41233 whole entry): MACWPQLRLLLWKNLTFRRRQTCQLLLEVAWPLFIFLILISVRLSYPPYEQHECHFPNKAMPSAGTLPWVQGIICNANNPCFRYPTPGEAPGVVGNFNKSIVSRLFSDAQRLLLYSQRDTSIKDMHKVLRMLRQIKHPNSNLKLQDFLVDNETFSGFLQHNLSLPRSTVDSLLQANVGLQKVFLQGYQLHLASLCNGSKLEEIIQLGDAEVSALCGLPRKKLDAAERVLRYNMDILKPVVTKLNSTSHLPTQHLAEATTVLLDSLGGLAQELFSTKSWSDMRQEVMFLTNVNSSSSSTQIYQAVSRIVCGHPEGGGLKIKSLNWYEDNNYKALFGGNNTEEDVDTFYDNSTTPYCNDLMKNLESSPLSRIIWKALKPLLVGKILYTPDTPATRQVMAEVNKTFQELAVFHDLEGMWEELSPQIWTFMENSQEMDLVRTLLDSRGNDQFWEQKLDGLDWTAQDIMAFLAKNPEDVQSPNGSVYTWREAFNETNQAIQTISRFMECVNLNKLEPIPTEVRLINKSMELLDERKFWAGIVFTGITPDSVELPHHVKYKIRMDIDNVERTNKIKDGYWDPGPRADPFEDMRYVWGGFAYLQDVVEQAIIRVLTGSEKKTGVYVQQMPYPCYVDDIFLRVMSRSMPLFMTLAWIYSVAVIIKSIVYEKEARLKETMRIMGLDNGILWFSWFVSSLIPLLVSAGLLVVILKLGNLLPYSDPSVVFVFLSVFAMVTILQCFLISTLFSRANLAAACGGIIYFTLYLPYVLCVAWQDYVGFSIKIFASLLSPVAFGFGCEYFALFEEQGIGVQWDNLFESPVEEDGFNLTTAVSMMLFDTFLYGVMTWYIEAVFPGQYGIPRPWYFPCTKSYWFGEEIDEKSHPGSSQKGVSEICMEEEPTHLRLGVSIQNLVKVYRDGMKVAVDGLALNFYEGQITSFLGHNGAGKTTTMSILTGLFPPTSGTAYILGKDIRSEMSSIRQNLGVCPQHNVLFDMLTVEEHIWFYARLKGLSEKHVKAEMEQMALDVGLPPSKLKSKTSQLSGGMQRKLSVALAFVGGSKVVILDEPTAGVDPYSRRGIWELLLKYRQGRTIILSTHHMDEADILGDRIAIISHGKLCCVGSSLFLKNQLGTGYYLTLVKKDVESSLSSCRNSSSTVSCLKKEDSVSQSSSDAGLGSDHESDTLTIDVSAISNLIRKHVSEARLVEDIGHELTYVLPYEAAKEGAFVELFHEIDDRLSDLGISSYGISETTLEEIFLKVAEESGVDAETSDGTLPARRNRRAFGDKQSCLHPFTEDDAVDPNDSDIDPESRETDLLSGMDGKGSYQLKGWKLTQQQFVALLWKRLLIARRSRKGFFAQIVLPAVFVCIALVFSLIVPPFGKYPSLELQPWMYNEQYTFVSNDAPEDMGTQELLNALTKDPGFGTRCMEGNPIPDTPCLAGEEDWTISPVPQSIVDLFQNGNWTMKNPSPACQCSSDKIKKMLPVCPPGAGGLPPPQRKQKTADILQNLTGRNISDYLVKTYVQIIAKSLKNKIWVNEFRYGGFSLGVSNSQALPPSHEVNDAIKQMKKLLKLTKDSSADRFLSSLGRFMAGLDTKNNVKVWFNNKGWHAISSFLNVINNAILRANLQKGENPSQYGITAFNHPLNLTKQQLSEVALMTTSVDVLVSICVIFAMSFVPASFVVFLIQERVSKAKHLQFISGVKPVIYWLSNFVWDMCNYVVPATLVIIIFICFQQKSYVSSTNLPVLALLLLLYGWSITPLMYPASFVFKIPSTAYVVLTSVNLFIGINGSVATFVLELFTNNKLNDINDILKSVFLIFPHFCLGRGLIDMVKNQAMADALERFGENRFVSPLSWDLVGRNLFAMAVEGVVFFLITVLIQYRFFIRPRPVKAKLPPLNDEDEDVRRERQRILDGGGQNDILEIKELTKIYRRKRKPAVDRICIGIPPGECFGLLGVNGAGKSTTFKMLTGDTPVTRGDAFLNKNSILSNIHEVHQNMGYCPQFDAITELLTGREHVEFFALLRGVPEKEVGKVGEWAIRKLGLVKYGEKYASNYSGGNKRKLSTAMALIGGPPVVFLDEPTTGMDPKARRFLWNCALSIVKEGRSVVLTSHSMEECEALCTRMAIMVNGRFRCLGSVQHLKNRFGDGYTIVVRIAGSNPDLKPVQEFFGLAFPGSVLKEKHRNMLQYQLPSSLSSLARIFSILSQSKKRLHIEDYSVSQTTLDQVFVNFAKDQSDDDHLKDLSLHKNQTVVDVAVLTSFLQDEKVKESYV

[6] = test system: J774 foam cells; assay: TMV-ApoAI distribution during cholesterol efflux from J774 foam cells (confocal fluorescence microscopy); assay type: cell-based; settings: 0.5 μM 5FAM-labeled particles, 12 h
Description: TMV-ApoAI distribution during cholesterol efflux from J774 foam cells. Applicant seeded 1×10^5 J774 cells in 500 μL DMEM containing 10% (v/v) FBS and 1% (w/v) P/S into each zone of a four-compartment 35-mm CELLview glass-bottom dish, and allowed them to reach ˜80% confluence. Cells were rinsed twice with 500 μL FBS-free DMEM containing 1% (w/v) P/S and incubated for 48 h in 200 μL FBS-free DMEM containing 40 μg/mL of fluorescence-labeled acetylated low-density lipoprotein (Dil-AcLDL), 2 μg/mL Sandoz inhibitor, 1% (w/v) P/S, and 5% (v/v) human LPDS to produce labeled foam cells. After two rinses as above, foam cells were equilibrated for 12 h in 200 μL FBS-free DMEM containing 2 μg/mL Sandoz inhibitor, 0.3 mM CPT-cAMP, 1% (w/v) P/S, and 5% (v/v) human LPDS. After two further rinses, the cells were treated with 100 μL of 5FAM-labeled treatments and controls in FBS-free DMEM containing 1% (w/v) P/S and 5% (v/v) human LPDS. After 12 h, the cells were washed twice with 500 μL PBS and then fixed for 10 minutes at room temperature using a PBS solution containing 10% (w/v) PFA, 25% (w/v) glutaraldehyde. Cells were then twice washed with PBS and subsequently stained for 45 min with 300 μL of wheat-germ agglutinin AlexaFluor 647 (WGA-647) prepared in PBS and 5% (v/v) goat serum at a 1:500 dilution. Cells were then twice washed with PBS and then stained with 300 μL DAPI dye (5 μg/mL in PBS) for 20 min. Cells were washed twice with PBS and then imaged using a Nikon AiR confocal microscope with a 20×, 0.75 numerical aperture dry objective.
A fluorescently labeled T-4FN-5FAM was used to promote cholesterol efflux from fluorescently-labeled foam cells (FIG. 5A and FIG. 15B). Cholesterol and T-4FN-5FAM fluorescence was quantified using Nikon AR Elements Analysis software's 3D volume viewer tool and plotted in a bar graph (FIG. 5C and FIG. 5D).

[7] = BODIPY-cholesterol binding assay (DLS and fluorescence); settings: for PDI after incubation with BODIPY-cholesterol / Zav after incubation with BODIPY-cholesterol: 20 uM BODIPY-cholesterol; for PDI after incubation with BODIPY-cholesterol: 2 h at 37° C.; for size change / cholesterol binding on incubation with BODIPY-cholesterol: relative to cholesterol-free controls
Description: BODIPY-Cholesterol Binding assay. A fluorescent cholesterol, BODIPY-cholesterol or 23-(dipyrrometheneboron difluoride)-24-norcholesterol was used to examine the HDL biomimics' ability to uptake cholesterol. VNP samples (500 μg) and equimolar HDL were incubated with 20 uM BODIPY-cholesterol for 2 hours at 37° C. on a shaker at 150 rpm in 0.5 mL of 10 mM KP/DMSO. After incubation, samples were purified by centrifuge using 100 kDa molecular-weight cutoff Amicon spin-filters to remove free, unbound cholesterol. Samples were analyzed for size on DLS (see above) and fluorescence before and after BODIPY-cholesterol binding using 480/508 nm excitation/emission parameters on a Tecan Plate Reader.
To investigate the ability of the TMV particles to bind cholesterol, Applicant mixed them with fluorescent BODIPY cholesterol for 2 h at 37° C. in 0.01M KP/DMSO (50:50).
The cholesterol-bound nanoparticles were separated from free cholesterol by centrifugation in spin filters with a 100-kDa cutoff. Samples without cholesterol were incubated as a negative control. Purified fractions were analyzed by DLS and fluorimetry.

Molecule: CSGGGDWFKAFYDKVAEKFKEAF [4FN]
- cholesterol efflux ([1]; upregulated ABCA1 conditions): most potent peptide
- increase in wound closure after 24 h [2]: 3.20 fold

Molecule: Qβ: 30-nm spherical virus-like particle with 180 identical coat protein units (SEQ ID NO: 6)
- PDI (DLS) [3]: 0.06
- Zav (hydrodynamic diameter, DLS) [3]: ~30.4 nm

Molecule: CGVLESFKASFLSALEEWTKKLQ [23MJ]
- ROS production (mitigation) [4]: did not mitigate ROS

Molecule: TMV-4FN conjugate (TMV-Lys nanoparticle displaying ApoAI peptide 4FN through an SM(PEG)4 linker) (from UniProt P69687 2-157)
- cholesterol efflux from J774 foam cells under upregulated ABCA1 conditions (fold (against TMV-4FC)) [5]: 2.5

B1: T-4FN: TMV-Lys nanoparticle with 4FN ApoAI peptide conjugated to surface lysines via SM(PEG)4 maleimide-thiol chemistry (conjugate)
chain: SYSITTPSQFVFLSSAWADPIELINLCTNALGNQFQTQQARTVVQRQFSEVWKPSPQVTVRFPDSDFKVYRYNAVLDPLVTALLGAFDTRNRIIEVENQANPTTAETLDATRRVDDATVAIRSAINNLIVELIRGTGSYNRSSFESSSGLVWTSGPK
peptide: CSGGGDWFKAFYDKVAEKFKEAF
- PDI (DLS) [3]: 0.266
- Zav (hydrodynamic diameter, DLS) [3]: ~255.8 nm
- cholesterol efflux when ABCA1 receptor is not upregulated ([1]; homeostatic ABCA1 conditions, FIG. 4D): drastically decreases
- cholesterol efflux potency relative to TMV-4FC ([1]; upregulated ABCA1 conditions, FIGS. 4B-4C): ~2.5 fold
- Dil-LDL cholesterol fluorescence intensity (cell-associated) [6]: significantly lower
- fluorescence intensity of 5FAM (cell-associated) [6]: significantly higher
- localization of particles on foam cells [6]: extracellular, forming a dense layer on the plasma membrane
- PDI after incubation with BODIPY-cholesterol [7]: 0.145
- Zav after incubation with BODIPY-cholesterol ([7]; 2 h at 37° C. in 0.01M KP/DMSO): 708.8 nm
- change in fluorescence after BODIPY-cholesterol binding ([7]; 480/508 nm, signal after minus before binding): most intense signal
- PDI before incubation with BODIPY-cholesterol ([7]; cholesterol-free control): 0.193
- Zav before incubation with BODIPY-cholesterol ([7]; cholesterol-free control, 2 h at 37° C. in 0.01M KP/DMSO): 220.5 nm
- size change / cholesterol binding on incubation with BODIPY-cholesterol [7]: greatest change
- ROS production (mitigation) [4]: reducing the ROS signal to near the level of the negative media control
- increase in wound closure after 12 h [2]: 6.41 fold
- increase in wound closure after 24 h [2]: 4.70 fold

B2: TMV (protein)
chain: MSYSITTPSQFVFLSSAWADPIELINLCTNALGNQFQTQQARTVVQRQFSEVWKPSPQVTVRFPDSDFKVYRYNAVLDPLVTALLGAFDTRNRIIEVENQANPTTAETLDATRRVDDATVAIRSAINNLIVELIRGTGSYNRSSFESSSGLVWTSGPK
- PDI (DLS) [3]: 0.230
- Zav (hydrodynamic diameter, DLS) [3]: ~203.1 nm
- Dil-LDL cholesterol fluorescence intensity (cell-associated) [6]: promotes a baseline level of cholesterol efflux
- localization of particles on foam cells [6]: mostly observed within the foam cells
- PDI after incubation with BODIPY-cholesterol [7]: 0.158
- Zav after incubation with BODIPY-cholesterol ([7]; 2 h at 37° C. in 0.01M KP/DMSO): 293.6 nm
- PDI before incubation with BODIPY-cholesterol ([7]; cholesterol-free control): 0.240
- size change / cholesterol binding on incubation with BODIPY-cholesterol [7]: inherent affinity for cholesterol
- increase in wound closure after 12 h [2]: 2.58 fold
- increase in wound closure after 24 h [2]: 3.15 fold

B3: Qβ-4FN: bacteriophage Qβ VLP conjugated to ApoAI peptide 4FN via SM(PEG)4 (conjugate)
chain: AKLETVTLGNIGKDGKQTLVLNPRGVNPTNGVASLSQAGAVPALEKRVTVSVSQPSRNRKNYKVQVKIQNPTACTANGSCDPSVTRQAYADVTFSFTQYSTDEERAFVRTELAALLASPLLIDAIDQLNPAY
peptide: CSGGGDWFKAFYDKVAEKFKEAF
- PDI (DLS) [3]: 0.177
- Zav (hydrodynamic diameter, DLS) [3]: ~40.5 nm
- cholesterol efflux ([1]; upregulated ABCA1 conditions): does not display significant cholesterol efflux
